Source: article PMC2935290

Biological target: HLA-DPB1*0101 (human (endogenous in VAVY))
Experiment: radioligand binding

Substance: … A7W (peptide)
- other: 3.1
